Laboratory results taken from PMC11543927, “Subtleties in Clathrin heavy chain binding boxes provide selectivity among adaptor proteins of budding yeast” (Nature Communications, 2024).

T1: ScChc-NTD Clathrin box mutant (K63E, I87D, Q89A, K98E) (Saccharomyces cerevisiae, UniProt P22137 1-369, K63E | I87D | Q89A | K98E)
T1 construct: Clathrin heavy chain N-terminal domain, Saccharomyces cerevisiae, residues 1-369, Clathrin box mutant; also called Cla mutant
T1 sequence (looked up): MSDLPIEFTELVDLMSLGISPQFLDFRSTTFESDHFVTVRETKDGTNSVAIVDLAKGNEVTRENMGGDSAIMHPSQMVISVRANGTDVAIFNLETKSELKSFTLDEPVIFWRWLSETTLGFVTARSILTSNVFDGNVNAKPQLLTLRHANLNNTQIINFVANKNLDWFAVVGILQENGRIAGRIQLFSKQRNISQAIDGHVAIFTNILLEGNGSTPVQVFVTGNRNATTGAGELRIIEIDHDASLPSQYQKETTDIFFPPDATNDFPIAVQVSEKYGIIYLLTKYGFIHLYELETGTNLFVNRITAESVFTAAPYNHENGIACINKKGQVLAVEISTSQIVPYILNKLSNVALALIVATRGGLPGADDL

T2: ScChc-NTD Arrestin and W box mutant (Arr+W) (Saccharomyces cerevisiae, UniProt P22137 1-369, F26A | Q155A | Q195A | I197T | K251E)
T2 construct: Clathrin heavy chain N-terminal domain, Saccharomyces cerevisiae, residues 1-369, Arrestin and W box mutant
T2 sequence (looked up): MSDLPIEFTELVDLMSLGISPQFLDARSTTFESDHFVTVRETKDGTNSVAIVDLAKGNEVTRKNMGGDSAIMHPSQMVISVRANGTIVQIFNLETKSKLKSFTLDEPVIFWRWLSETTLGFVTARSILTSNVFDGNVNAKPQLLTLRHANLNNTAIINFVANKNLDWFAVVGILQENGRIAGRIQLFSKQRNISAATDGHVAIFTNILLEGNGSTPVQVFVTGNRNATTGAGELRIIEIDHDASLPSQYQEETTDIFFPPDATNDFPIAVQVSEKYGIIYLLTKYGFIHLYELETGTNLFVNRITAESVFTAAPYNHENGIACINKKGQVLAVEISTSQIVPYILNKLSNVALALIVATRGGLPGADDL

T3: ScChc-NTD Clathrin, Arrestin and W box mutant (Cla+Arr+W) (Saccharomyces cerevisiae, UniProt P22137 1-369, F26A | K63E | I87D | Q89A | K98E | Q155A | Q195A | I197T | K251E)
T3 construct: Clathrin heavy chain N-terminal domain, Saccharomyces cerevisiae, residues 1-369, Clathrin, Arrestin and W box mutant; also called triple mutant
T3 sequence (looked up): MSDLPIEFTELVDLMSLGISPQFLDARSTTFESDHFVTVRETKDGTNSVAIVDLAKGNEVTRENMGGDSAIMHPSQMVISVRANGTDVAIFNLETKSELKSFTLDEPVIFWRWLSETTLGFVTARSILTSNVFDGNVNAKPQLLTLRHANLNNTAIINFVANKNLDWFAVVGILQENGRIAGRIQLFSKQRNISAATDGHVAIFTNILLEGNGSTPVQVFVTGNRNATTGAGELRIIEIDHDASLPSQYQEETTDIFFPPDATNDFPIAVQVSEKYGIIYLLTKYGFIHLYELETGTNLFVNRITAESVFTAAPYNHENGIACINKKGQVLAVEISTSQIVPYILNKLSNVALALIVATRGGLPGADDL

T4: ScChc-NTD Clathrin and W box mutant (Cla+W) (Saccharomyces cerevisiae, UniProt P22137 1-369, F26A | K63E | I87D | Q89A | K98E | Q155A)
T4 construct: Clathrin heavy chain N-terminal domain, Saccharomyces cerevisiae, residues 1-369, Clathrin and W box mutant
T4 sequence (looked up): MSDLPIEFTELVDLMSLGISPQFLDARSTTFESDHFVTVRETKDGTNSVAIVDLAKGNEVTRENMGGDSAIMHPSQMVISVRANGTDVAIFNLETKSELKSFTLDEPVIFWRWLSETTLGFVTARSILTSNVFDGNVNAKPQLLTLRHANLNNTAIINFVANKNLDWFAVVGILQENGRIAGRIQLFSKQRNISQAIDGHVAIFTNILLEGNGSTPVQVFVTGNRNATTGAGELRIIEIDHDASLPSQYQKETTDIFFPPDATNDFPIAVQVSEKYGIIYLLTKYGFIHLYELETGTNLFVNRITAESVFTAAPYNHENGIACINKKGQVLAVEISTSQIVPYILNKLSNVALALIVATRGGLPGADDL

T5: ScChc-NTD Arrestin box mutant (Q195A, I197T, K251E) (Saccharomyces cerevisiae, UniProt P22137 1-369, Q195A | I197T | K251E)
T5 construct: Clathrin heavy chain N-terminal domain, Saccharomyces cerevisiae, residues 1-369, Arrestin box mutant; also called Arr mutant
T5 sequence (looked up): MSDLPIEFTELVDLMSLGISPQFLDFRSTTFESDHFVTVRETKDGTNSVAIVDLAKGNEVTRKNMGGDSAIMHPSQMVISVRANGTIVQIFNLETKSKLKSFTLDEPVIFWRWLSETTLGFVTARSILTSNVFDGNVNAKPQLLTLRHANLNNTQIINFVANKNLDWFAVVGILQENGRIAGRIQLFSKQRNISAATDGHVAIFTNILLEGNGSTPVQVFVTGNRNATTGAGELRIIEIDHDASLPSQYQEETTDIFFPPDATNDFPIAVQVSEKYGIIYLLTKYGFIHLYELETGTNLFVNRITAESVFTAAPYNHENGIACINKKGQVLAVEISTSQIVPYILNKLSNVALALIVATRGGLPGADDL


What was measured:
Experiment in all cases: nanoDSF thermal shift; ScChc-NTD mutants 10 µM with Ent1 or Ent2 peptide, thermal ramp up to 80 °C; apparent KD from the Tm shift model
Settings in all cases: both partners purified
[1] = target: T1, ScChc-NTD Clathrin box mutant (K63E, …)
[2] = target: T2, ScChc-NTD Arrestin and W box mutant …
[3] = target: T3, ScChc-NTD Clathrin, Arrestin and W box …
[4] = target: T4, ScChc-NTD Clathrin and W box mutant …
[5] = target: T5, ScChc-NTD Arrestin box mutant (Q195A, …)

Row | Binder | Kd [1] [µM] | binding result [2] | Kd [3] [µM] | fold decrease in binding against WT NTD [4] [fold] | Kd [5] [µM]
1 | GYTLIDL (also called Ent1 peptide; source: synthetic peptide, bought: NovoProLabs) [Ent1 CBM peptide (GYTLIDL)] | ~968 | binds | ~3450 | ~9 | ~166
2 | GVSLIDL (also called Ent2 peptide; source: synthetic peptide, bought: NovoProLabs) [Ent2 CBM peptide (GVSLIDL)] | ~509 | binds | ~1040 | ~9 | ~216
